Test results: patent US11814435B2, “Therapeutic antibodies and their uses” (PFIZER INC., priority 2015, dated 2023)
Residue numbers refer to the chain shown, from its start. Values belong to the molecule of their own block, whether it stands above or below them.

What was measured:
[1] = target: T1, hBCMA (human BCMA) (Homo sapiens, UniProt Q02223); assay: Kinetics and affinity of hBCMA/human IgG interactions by SPR (Bio-Rad Proteon XPR36); assay type: binding; conditions: huBCMA, 37° C.
T1 sequence (Q02223 1-184): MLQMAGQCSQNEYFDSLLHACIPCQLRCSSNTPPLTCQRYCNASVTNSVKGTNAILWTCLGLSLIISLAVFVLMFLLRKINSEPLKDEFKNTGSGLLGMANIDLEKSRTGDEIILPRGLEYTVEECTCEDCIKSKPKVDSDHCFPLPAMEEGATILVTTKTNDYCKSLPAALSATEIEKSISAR
Summary of the method: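 IgG amine-coupled (20 μg/mL, acetate pH 4.5), GLC chip. hBCMA 0.08–50 nM, 5-fold steps, low→high, 2 min assoc., 2 h dissoc. after top conc. HBS-T+ + 1 mg/mL BSA, 37° C. or 25° C. Buffer-blank double referencing; 1:1 Langmuir with mass transport fit.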

[2] = system: cyBCMA; assay: Kinetics and affinity of cyBCMA/human IgG interactions by SPR (Bio-Rad Proteon XPR36); assay type: binding, cynomolgus; conditions: 37° C.

B2: L3.PY/L1.PH/H2.QR: anti-BCMA antibody (antibody, V domains shown)
VH: EVQLLESGGGLVQPGGSLRLSCAASGFTFGSYAMTWVRQAPGKGLEWVSAISGSGGNTFYADQRKGRFTISRDNSKNTLYLQMNSLRAEDTAVYYCARVSPIASGMDYWGQGTLVTVSS
VL: EIVLTQSPGTLSLSPGERATLSCRASQSVSPHYLAWYQQKPGQAPRLLIYGASSRATGIPDRFSGSGSGTDFTLTISRLEPEDFAVYYCQHYPYPPSFTFGQGTKVEIK
ka (1/Ms) huBCMA @ 37° C. [1]: 3.69e+06 M⁻¹ s⁻¹ | kd (1/s) huBCMA @37° C. [1]: 0.00236 s⁻¹ | ka (1/Ms) cyBCMA @ 37° C. [2]: 2.42e+06 M⁻¹ s⁻¹ | kd (1/s) cyBCMA @37° C. [2]: 0.00436 s⁻¹

B3: L3.PY/L3.KF/H2.DY: anti-BCMA antibody (antibody, V domains shown)
VH: B2 VH with S52D, G53Y, Q63S, R64V
VL: B2 VL with P31S, H32S, Q90K, H91F
ka (1/Ms) huBCMA @ 37° C. [1]: 2.74e+06 M⁻¹ s⁻¹ | kd (1/s) huBCMA @37° C. [1]: 0.00182 s⁻¹ | ka (1/Ms) cyBCMA @ 37° C. [2]: 2.08e+06 M⁻¹ s⁻¹ | kd (1/s) cyBCMA @37° C. [2]: 0.00368 s⁻¹

B4: L3.PY/L3.KY/H2.QL: anti-BCMA antibody (antibody, V domains shown)
VH: B2 VH with R64L
VL: B2 VL with P31S, H32S, Q90K, H91Y
ka (1/Ms) huBCMA @ 37° C. [1]: 3.65e+06 M⁻¹ s⁻¹ | kd (1/s) huBCMA @37° C. [1]: 0.00208 s⁻¹ | ka (1/Ms) cyBCMA @ 37° C. [2]: 2.75e+06 M⁻¹ s⁻¹ | kd (1/s) cyBCMA @37° C. [2]: 0.00409 s⁻¹

B5: L3.PY/L3.KY/H2.HA: anti-BCMA antibody (antibody, V domains shown)
VH: B2 VH with G53H, S54A, Q63S, R64V
VL: B2 VL with P31S, H32S, Q90K, H91Y
ka (1/Ms) huBCMA @ 37° C. [1]: 3.29e+06 M⁻¹ s⁻¹ | kd (1/s) huBCMA @37° C. [1]: 0.00163 s⁻¹ | ka (1/Ms) cyBCMA @ 37° C. [2]: 2.28e+06 M⁻¹ s⁻¹ | kd (1/s) cyBCMA @37° C. [2]: 0.00318 s⁻¹

B6: L3.PY/L3.KY/H3.TAQ: anti-BCMA antibody (antibody, V domains shown)
VH: B2 VH with Q63S, R64V, A97T, S104A, G105Q
VL: B2 VL with P31S, H32S, Q90K, H91Y
ka (1/Ms) huBCMA @ 37° C. [1]: 2.79e+06 M⁻¹ s⁻¹ | kd (1/s) huBCMA @37° C. [1]: 0.000649 s⁻¹ | ka (1/Ms) cyBCMA @ 37° C. [2]: 1.81e+06 M⁻¹ s⁻¹ | kd (1/s) cyBCMA @37° C. [2]: 0.00192 s⁻¹

B9: L3.PY/L3.KY/H2.LT: anti-BCMA antibody (antibody, V domains shown)
VH: B2 VH with G53L, S54T, Q63S, R64V
VL: B2 VL with P31S, H32S, Q90K, H91Y
ka (1/Ms) huBCMA @ 37° C. [1]: 2.92e+06 M⁻¹ s⁻¹ | kd (1/s) huBCMA @37° C. [1]: 0.000906 s⁻¹ | ka (1/Ms) cyBCMA @ 37° C. [2]: 1.82e+06 M⁻¹ s⁻¹ | kd (1/s) cyBCMA @37° C. [2]: 0.00232 s⁻¹

B10: L3.PY/L3.KF/H2.LT: anti-BCMA antibody (antibody, V domains shown)
VH: B2 VH with G53L, S54T, Q63S, R64V
VL: B2 VL with P31S, H32S, Q90K, H91F
ka (1/Ms) huBCMA @ 37° C. [1]: 2.75e+06 M⁻¹ s⁻¹ | kd (1/s) huBCMA @37° C. [1]: 0.00191 s⁻¹ | ka (1/Ms) cyBCMA @ 37° C. [2]: 1.91e+06 M⁻¹ s⁻¹ | kd (1/s) cyBCMA @37° C. [2]: 0.00413 s⁻¹

B11: L3.PY/L3.KF/H2.QL: anti-BCMA antibody (antibody, V domains shown)
VH: B2 VH with R64L
VL: B2 VL with P31S, H32S, Q90K, H91F
ka (1/Ms) huBCMA @ 37° C. [1]: 2.07e+06 M⁻¹ s⁻¹ | kd (1/s) huBCMA @37° C. [1]: 0.00125 s⁻¹ | ka (1/Ms) cyBCMA @ 37° C. [2]: 1.42e+06 M⁻¹ s⁻¹ | kd (1/s) cyBCMA @37° C. [2]: 0.0031 s⁻¹

Continued, in another order:

ka (1/Ms) huBCMA @ 37° C. [1]: 3.3e+06 M⁻¹ s⁻¹ | kd (1/s) huBCMA @37° C. [1]: 0.000912 s⁻¹ | kd (1/s) cyBCMA @37° C. [2]: 0.00428 s⁻¹
B1: L3.PY/L3.KY/H3.YA: anti-BCMA antibody (antibody, V domains shown)
VH: B2 VH with Q63S, R64V, A103Y, S104A
VL: B2 VL with P31S, H32S, Q90K, H91Y
ka (1/Ms) cyBCMA @ 37° C. [2]: 1.84e+06 M⁻¹ s⁻¹

ka (1/Ms) huBCMA @ 37° C. [1]: 2.95e+06 M⁻¹ s⁻¹ | kd (1/s) huBCMA @37° C. [1]: 0.00099 s⁻¹ | kd (1/s) cyBCMA @37° C. [2]: 0.00774 s⁻¹
B7: L3.PY/L3.KY/H2.QR: anti-BCMA antibody (antibody, V domains shown)
VH: B2 VH
VL: B2 VL with P31S, H32S, Q90K, H91Y
ka (1/Ms) cyBCMA @ 37° C. [2]: 2.05e+06 M⁻¹ s⁻¹

ka (1/Ms) huBCMA @ 37° C. [1]: 3.19e+06 M⁻¹ s⁻¹ | kd (1/s) huBCMA @37° C. [1]: 0.000642 s⁻¹ | kd (1/s) cyBCMA @37° C. [2]: 0.00243 s⁻¹
B8: L3.PY/L3.KY/H2.DY: anti-BCMA antibody (antibody, V domains shown)
VH: B2 VH with S52D, G53Y, Q63S, R64V
VL: B2 VL with P31S, H32S, Q90K, H91Y
ka (1/Ms) cyBCMA @ 37° C. [2]: 1.96e+06 M⁻¹ s⁻¹
